In IntAct's records for PubMed 23446637:

B1: IQ calmodulin-binding motif-containing protein 1 (Homo sapiens), Q15051 (parent)
chain: MKPTGTDPRILSIAAEVAKSPEQNVPVILLKLKEIINITPLGSSELKKIKQDIYCYDLIQYCLLVLSQDYSRIQGGWTTISQLTQILSHCCVGLEPGEDAEEFYNELLPSAAENFLVLGRQLQTCFINAAKAEEKDELLHFFQIVTDSLFWLLGGHVELIQNVLQSDHFLHLLQADNVQIGSAVMMMLQNILQINSGDLLRIGRKALYSILDEVIFKLFSTPSPVIRSTATKLLLLMAESHQEILILLRQSTCYKGLRRLLSKQETGTEFSQELRQLVGLLSPMVYQEVEEQKLHQAACLIQAYWKGFQTRKRLKKLPSAVIALQRSFRSKRSKMLLEINRQKEEEDLKLQLQLQRQRAMRLSRELQLSMLEIVHPGQVEKHYREMEEKSALIIQKHWRGYRERKNFHQQRQSLIEYKAAVTLQRAALKFLAKCRKKKKLFAPWRGLQELTDARRVELKKRVDDYVRRHLGSPMSDVVSRELHAQAQERLQHYFMGRALEERAQQHREALIAQISTNVEQLMKAPSLKEAEGKEPELFLSRSRPVAAKAKQAHLTTLKHIQAPWWKKLGEESGDEIDVPKDELSIELENLFIGGTKPP

Variants of: B1
Conditions: with ce290_human CEP290, O15078
ce290_human CEP290, O15078, sequence (O15078 whole entry): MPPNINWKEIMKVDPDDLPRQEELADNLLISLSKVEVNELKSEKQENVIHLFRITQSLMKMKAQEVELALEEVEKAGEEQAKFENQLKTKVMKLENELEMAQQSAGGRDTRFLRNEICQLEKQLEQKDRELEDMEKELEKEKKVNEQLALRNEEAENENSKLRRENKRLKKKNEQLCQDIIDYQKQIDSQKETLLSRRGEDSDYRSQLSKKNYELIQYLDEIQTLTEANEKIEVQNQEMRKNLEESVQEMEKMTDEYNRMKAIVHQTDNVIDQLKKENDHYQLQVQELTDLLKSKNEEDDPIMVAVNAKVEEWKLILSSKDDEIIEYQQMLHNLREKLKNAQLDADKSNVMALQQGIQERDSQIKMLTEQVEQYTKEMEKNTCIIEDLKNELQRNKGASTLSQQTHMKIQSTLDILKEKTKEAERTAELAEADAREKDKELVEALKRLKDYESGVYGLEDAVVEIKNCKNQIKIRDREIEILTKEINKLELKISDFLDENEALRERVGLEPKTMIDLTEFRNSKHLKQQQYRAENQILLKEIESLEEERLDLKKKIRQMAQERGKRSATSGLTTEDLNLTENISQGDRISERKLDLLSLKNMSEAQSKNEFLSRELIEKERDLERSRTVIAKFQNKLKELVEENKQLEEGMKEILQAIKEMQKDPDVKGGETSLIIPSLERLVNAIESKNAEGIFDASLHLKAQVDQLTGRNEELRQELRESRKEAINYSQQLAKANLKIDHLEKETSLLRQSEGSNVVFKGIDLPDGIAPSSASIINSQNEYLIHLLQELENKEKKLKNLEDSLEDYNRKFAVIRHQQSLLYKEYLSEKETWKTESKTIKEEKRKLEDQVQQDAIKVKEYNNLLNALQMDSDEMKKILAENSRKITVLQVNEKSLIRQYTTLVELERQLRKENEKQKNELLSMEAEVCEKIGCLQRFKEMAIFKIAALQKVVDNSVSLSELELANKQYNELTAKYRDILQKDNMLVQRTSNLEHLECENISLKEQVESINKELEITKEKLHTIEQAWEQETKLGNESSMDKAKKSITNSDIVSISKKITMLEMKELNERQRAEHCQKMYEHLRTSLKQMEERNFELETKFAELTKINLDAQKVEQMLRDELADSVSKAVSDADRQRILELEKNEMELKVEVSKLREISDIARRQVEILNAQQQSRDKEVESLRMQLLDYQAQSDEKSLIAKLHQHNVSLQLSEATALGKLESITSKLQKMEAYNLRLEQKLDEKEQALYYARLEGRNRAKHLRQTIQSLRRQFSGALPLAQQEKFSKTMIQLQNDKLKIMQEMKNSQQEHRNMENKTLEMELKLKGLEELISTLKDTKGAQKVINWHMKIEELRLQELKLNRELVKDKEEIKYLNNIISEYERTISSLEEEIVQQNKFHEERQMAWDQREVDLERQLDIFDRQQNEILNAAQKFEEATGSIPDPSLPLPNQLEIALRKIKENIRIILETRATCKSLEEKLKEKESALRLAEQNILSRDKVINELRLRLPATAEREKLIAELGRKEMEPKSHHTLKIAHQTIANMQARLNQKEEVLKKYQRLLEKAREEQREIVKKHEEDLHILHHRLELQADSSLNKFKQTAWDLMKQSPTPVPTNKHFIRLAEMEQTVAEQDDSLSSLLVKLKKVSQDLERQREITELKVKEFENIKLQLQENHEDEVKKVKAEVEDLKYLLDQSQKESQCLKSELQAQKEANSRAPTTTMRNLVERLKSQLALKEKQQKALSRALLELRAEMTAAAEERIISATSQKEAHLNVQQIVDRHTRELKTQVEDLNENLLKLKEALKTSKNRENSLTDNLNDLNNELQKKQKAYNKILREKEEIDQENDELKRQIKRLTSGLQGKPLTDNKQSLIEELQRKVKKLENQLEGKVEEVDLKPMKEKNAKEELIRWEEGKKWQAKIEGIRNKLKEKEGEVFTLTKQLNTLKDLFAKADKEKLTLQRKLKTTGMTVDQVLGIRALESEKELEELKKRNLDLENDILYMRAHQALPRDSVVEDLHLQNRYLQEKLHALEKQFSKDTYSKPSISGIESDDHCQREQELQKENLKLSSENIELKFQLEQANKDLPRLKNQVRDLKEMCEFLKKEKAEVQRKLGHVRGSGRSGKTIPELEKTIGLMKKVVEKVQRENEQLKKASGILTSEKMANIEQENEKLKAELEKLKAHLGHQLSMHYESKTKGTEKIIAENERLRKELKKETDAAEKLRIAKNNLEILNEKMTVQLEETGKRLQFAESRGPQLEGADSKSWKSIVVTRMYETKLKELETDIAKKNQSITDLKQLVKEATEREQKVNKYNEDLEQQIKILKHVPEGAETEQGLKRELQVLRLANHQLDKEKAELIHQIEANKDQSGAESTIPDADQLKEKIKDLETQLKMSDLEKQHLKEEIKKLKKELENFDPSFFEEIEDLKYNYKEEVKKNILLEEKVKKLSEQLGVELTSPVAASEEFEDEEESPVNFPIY

| effect of a mutation on the interaction | Variant |
| --- | --- |
| disrupting interaction | A549K |
